Experimental data from patent KR20230083068A (dated 2023).

Key:
[1] = molecular target: T1, 비오틴 펩타이드-6xHis-tagged HCoV-OC43 N 단백질 (HCoV-OC43 N 단백질-Bio-His6) (HCoV-OC43, UniProt P33469 1-448)
T1 chain: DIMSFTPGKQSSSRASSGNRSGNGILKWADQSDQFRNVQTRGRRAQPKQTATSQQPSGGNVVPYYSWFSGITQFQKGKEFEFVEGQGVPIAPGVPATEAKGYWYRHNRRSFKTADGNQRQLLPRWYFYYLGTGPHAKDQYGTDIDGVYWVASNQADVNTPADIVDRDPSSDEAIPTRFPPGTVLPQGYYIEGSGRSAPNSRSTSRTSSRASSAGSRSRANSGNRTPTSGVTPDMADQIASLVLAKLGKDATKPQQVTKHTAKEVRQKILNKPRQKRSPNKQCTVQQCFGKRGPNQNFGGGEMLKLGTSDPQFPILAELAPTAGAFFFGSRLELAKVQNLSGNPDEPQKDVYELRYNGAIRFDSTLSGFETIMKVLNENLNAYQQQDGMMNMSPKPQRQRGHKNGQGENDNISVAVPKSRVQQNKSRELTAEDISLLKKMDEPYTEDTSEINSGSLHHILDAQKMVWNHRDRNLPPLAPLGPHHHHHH

[2] = molecular target: MERS-CoV N 단백질 (MERS-CoV 감염 Vero 세포 용해물) (MERS-CoV, UniProt K9N4V7 1-411); assay: western blot of infected Vero cell lysates
[3] = molecular target: SARS-CoV-2 N 단백질 (SARS-CoV-2 감염 Vero 세포 용해물) (SARS-CoV-2, UniProt P0DTC9 1-419); assay: western blot of infected Vero cell lysates

B1: 항-HCoV-OC43 N 단백질 특이적 단클론 항체 (클론 1C7D7 mAb) (antibody, V domains shown)
VH: EVKLEQSGGGLVKPGGSLKLSCAASGFSFSSHTMSWVRQTPEKRLEWVATITSGGTYTYYPDSVKGRFTISRDNAKNTLYLQMTSLKSEDTAMYYCTRGQEADGYYVPFAYWGQGTLVTVSA
VL: DIVMTQSPSSLAVSVGEKVTMSCKSSQSLLYSSNQKNYLAWYQQKPGQSPKLLIFWASTRESGVPDRFTGSGSGTDFTLTISSVQAEDLAVYYCKQSYNLRTFGGGTKLEIKR
notes: also called anti-HCoV-OC43 N monoclonal antibody
In the case of B1, the EC50 [1] is reported as about 1.2 nM, the binding result [2] is reported as “no binding” and the binding result [3] is reported as “no binding”.
